Where a chain is given by its changes, count along the chain named. Blank lines part the entries; values can stand above or below the binder they belong to.
Tests used:
eTau-4 peptide = target: T1, eTau-4 peptide; assay: relative binding affinity, method not named (Table 4); sixth column, headed eTau 4
T1 construct: also called synthetic eTau4 polypeptide
T1 peptide: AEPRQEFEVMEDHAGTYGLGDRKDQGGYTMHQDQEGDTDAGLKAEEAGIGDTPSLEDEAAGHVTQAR

[1] = target: eTau 4 (FIG. 17); assay: relative binding affinity, method not named (Table 4); fifth column, headed eTau 4
[2] = target: T2, 383 amino acid recombinant tau (UniProt P10636-6 1-383, biotinylated where printed as biotin-rTau383 (position not given)); assay: Octet
T2 construct: also called rTau383
T2 sequence (P10636 other isoform, or with tags, fused parts or gaps limits assumed): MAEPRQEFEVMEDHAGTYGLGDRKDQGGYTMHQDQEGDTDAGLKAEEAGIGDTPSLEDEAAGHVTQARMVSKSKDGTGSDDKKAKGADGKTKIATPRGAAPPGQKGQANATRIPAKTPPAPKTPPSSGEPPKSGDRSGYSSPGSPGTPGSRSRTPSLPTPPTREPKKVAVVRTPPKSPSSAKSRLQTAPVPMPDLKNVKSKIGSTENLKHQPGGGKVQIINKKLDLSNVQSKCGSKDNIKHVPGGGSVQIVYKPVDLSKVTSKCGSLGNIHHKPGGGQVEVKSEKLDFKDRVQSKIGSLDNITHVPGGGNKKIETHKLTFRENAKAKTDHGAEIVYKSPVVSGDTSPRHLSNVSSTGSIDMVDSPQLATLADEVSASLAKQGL

[3] = target: T2, 383 amino acid recombinant tau; assay: relative binding affinity, method not named (Table 4)
[4] = target: eTau1a (amino acids 2-166 of fetal tau) (Homo sapiens (Human), UniProt P10636 2-541); assay: as above
eTau 2 = target: T3, eTau 2; assay: as above
T3 construct: member of the group m9
T3 polypeptide: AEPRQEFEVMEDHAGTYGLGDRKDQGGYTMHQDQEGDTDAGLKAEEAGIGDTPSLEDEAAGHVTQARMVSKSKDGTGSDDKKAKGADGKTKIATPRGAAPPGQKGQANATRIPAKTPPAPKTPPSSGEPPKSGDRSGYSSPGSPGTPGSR

eTau 1b = target: T4, eTau 1b; assay: as above
T4 construct: member of the group m9
T4 polypeptide: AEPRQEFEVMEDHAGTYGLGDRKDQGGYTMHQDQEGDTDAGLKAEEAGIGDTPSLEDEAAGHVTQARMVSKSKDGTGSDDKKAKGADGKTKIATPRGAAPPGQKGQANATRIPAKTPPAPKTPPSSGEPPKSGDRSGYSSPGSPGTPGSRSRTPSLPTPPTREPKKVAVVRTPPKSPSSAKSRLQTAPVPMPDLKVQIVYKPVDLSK

B2: VH1/Vk3 (antibody, V domains shown)
VH: EVHLVESGGALVKPGGSLRLSCAASGFSFSKYGMSWVRQAPGKGLEWVATISSSGSRTYYPDSVKGRFTISRDNAKNTLYLQMSSLKSEDTAMYYCSISWDGAMDYWGQGTSVTVSS
VL: DVVMTQSPLSLPVTLGQPASISCKSSQSIVHSNGNTYLEWYLQKPGQSPQLLVYKVSNRFSGVPDRFSGSGSGTDFTLKISRVEAEDVGVYYCFQGSLVPWAFGGGTKVEIK
notes: member of the group m7; also called humanized IPN002 variant VH1/Vk3
- Kd (eTau-4 peptide): 0.761 nM
- Kd [1]: 0.478 nM
- Kd [2]: 1.28 nM
- koff [2]: 0.000233 s⁻¹
- kon [2]: 182000 M⁻¹ s⁻¹
- Kd [3]: 0.175 nM
- Kd [4]: 0.291 nM
- Kd (eTau 2): 0.444 nM
- Kd (eTau 1b): 0.59 nM

B3: VH3/Vk3 (antibody, V domains shown)
VH: B2 VH with H3Q, S84N, K87R, S88A, S112T
VL: B2 VL
notes: member of the group m7; also called humanized IPN002 variant VH3/Vk3
- Kd (eTau-4 peptide): 0.665 nM
- Kd [1]: 0.469 nM
- Kd [2]: 0.169 nM
- koff [2]: 3.15e-05 s⁻¹
- kon [2]: 187000 M⁻¹ s⁻¹
- Kd [3]: 0.224 nM
- Kd [4]: 0.22 nM
- Kd (eTau 2): 0.471 nM
- Kd (eTau 1b): 0.689 nM

B6: VH1/Vk4 (antibody, V domains shown)
VH: B2 VH
VL: B2 VL with V53I
notes: member of the group m7; also called humanized IPN002 variant VH1/Vk4
- Kd (eTau-4 peptide): 0.869 nM
- Kd [1]: 0.269 nM
- Kd [2]: 0.571 nM
- koff [2]: 9.52e-05 s⁻¹
- kon [2]: 167000 M⁻¹ s⁻¹
- Kd [3]: 0.286 nM
- Kd [4]: 0.252 nM
- Kd (eTau 2): 0.427 nM
- Kd (eTau 1b): 0.597 nM

B7: VH1/Vk2 (antibody, V domains shown)
VH: B2 VH
VL: B2 VL with V90T
notes: member of the group m7; also called humanized IPN002 variant VH1/Vk2
- Kd (eTau-4 peptide): 0.633 nM
- Kd [1]: 0.321 nM
- Kd [2]: 0.446 nM
- koff [2]: 8.74e-05 s⁻¹
- kon [2]: 196000 M⁻¹ s⁻¹
- Kd [3]: 0.121 nM
- Kd [4]: 0.212 nM
- Kd (eTau 2): 0.361 nM
- Kd (eTau 1b): 0.558 nM

B8: VH4/Vk4 (antibody, V domains shown)
VH: B2 VH with H3Q, S84N, K87R, S88A, S97A, S112T
VL: B2 VL with V53I
notes: member of the group m7; also called humanized IPN002 variant VH4/Vk4
- Kd (eTau-4 peptide): 1.03 nM
- Kd [1]: 0.462 nM
- Kd [2]: 0.812 nM
- koff [2]: 0.000126 s⁻¹
- kon [2]: 156000 M⁻¹ s⁻¹
- Kd [3]: 0.379 nM
- Kd [4]: 0.325 nM
- Kd (eTau 2): 0.564 nM
- Kd (eTau 1b): 0.535 nM

B9: VH3/Vk2 (antibody, V domains shown)
VH: B2 VH with H3Q, S84N, K87R, S88A, S112T
VL: B2 VL with V90T
notes: member of the group m7; also called humanized IPN002 variant VH3/Vk2
- Kd (eTau-4 peptide): 0.701 nM
- Kd [1]: 0.589 nM
- Kd [2]: 0.577 nM
- koff [2]: 0.000107 s⁻¹
- kon [2]: 185000 M⁻¹ s⁻¹
- Kd [3]: 0.258 nM
- Kd [4]: 0.282 nM
- Kd (eTau 2): 0.408 nM
- Kd (eTau 1b): 0.614 nM

Binders with a lower Kd (eTau-4 peptide), results first:

- Kd (eTau-4 peptide): 0.577 nM
- Kd [1]: 0.358 nM
- Kd [2]: 0.0426 nM
- koff [2]: 8.75e-06 s⁻¹
- kon [2]: 206000 M⁻¹ s⁻¹
- Kd [3]: 0.183 nM
- Kd [4]: 0.294 nM
- Kd (eTau 2): 0.465 nM
- Kd (eTau 1b): 0.737 nM
B1: VH1/Vk1 (antibody, V domains shown)
VH: B2 VH
VL: B2 VL with V3L, V90T
notes: member of the group m7; also called humanized IPN002 variant VH1/Vk1

- Kd (eTau-4 peptide): 0.586 nM
- Kd [1]: 0.381 nM
- Kd [2]: 0.475 nM
- koff [2]: 0.0001 s⁻¹
- kon [2]: 211000 M⁻¹ s⁻¹
- Kd [3]: 0.255 nM
- Kd [4]: 0.216 nM
- Kd (eTau 2): 0.447 nM
- Kd (eTau 1b): 0.382 nM
B4: VH3/Vk4 (antibody, V domains shown)
VH: B2 VH with H3Q, S84N, K87R, S88A, S112T
VL: B2 VL with V53I
notes: member of the group m7; also called humanized IPN002 variant VH3/Vk4

- Kd (eTau-4 peptide): 0.498 nM
- Kd [1]: 0.28 nM
- Kd [2]: 2.12 nM
- koff [2]: 0.000297 s⁻¹
- kon [2]: 140000 M⁻¹ s⁻¹
- Kd [3]: 0.187 nM
- Kd [4]: 0.198 nM
- Kd (eTau 2): 0.405 nM
- Kd (eTau 1b): 0.359 nM
B5: VH4/Vk1 (antibody, V domains shown)
VH: B2 VH with H3Q, S84N, K87R, S88A, S97A, S112T
VL: B2 VL with V3L, V90T
notes: member of the group m7; also called humanized IPN002 variant VH4/Vk1

Reference: patent US20160122421A1 (IPIERIAN, published 2016)
